From US20110311517A1, “Antibodies and methods for treating estrogen receptor-associated diseases” (SHENOGEN PHARMA GROUP, LTD., priority 2009, published 2011)
Marks after values point to notes of the source that are not given here.

Experiments:
implanted tumors = assay: Comparison of anti-tumor activity of ScFv-7 with tamoxifen on tumor-bearing nude mice; format: in vivo, BALB/c-nu female nude mice; details: after 18 days of drug administration
Procedure: BALB/c-nu female nude mice were divided into 3 groups, with 7 mice in each group.
Human anti-ERα36 ScFv-7 was administered at the dose of 0.1 mg/20 g body weight/day. The positive control tamoxifen was administered at the dose of 0.33 mg/20 g body weight/day. The negative control group was administered with human IgG.
The tumor-bearing nude mice were weighed, and the volumes of the implanted tumors were measured every 3-4 days. The relative tumor volumes and tumor growth inhibition rates were calculated using Equation 2 and Equation 4 respectively. Animals received drug administration for 18 days and were terminated 24 h later. The tumors were excised from the animals and weighed. The average tumor weights and tumor growth inhibitions were calculated using Equation 4.

[1] = Body weight and mortality of tumor-bearing nude mice during drug administration; format: in vivo, BALB/c-nu nude mice; details: mean ± SD
Excerpt: (§1) The tested animals were grouped into 7 groups with 7 nude mice in each group. The seven groups are the negative control group treated with human IgG antibody (purchased from Beijing Biosynthesis Biotechnology Co. Ltd.), the positive control group treated with herceptin (provided by Beijing Shenogen pharma group), the multi-clonal antibody test group treated with rabbit anti-ERα36 multi-clonal antibody (provided by Wang, Zhao-Yi group, Creighton University), and the monoclonal antibody test groups treated with human anti-ERα36 monoclonal ScFv1, ScFv3, ScFv4 and ScFv7 respectively.
(§2) The test groups were administered with the same dose of rabbit anti-ERα36 multi-clonal antibody, human anti-ERα36 monoclonal ScFv1, ScFv3, ScFv4 and ScFv7 respectively (5 mg/kg, 100 μg/dose). The positive control group was administered with 5 mg/kg herceptin (100 μg/dose,), and the negative control group was administered with 5 mg/kg IgG antibody (100 μg/dose).
Human breast tumor BCAP-37 (estrogen receptor positive, provided by department of pharmacology, Institute of Materia Medica, Chinese Academy of Medical Sciences) was implanted subcutaneously into the armpit of the right forelimb of each tested nude mouse. Diethylstilbestrol was administered by gavage with the dose of 7 μg/day for 9 consecutive days after the implantation. On day 10, the mice were grouped into 7 groups and administered with the corresponding drug via intravenous injection, at a dosing interval of 3-4 days, for 6 consecutive doses. Every 3-4 days, the tumor-bearing mice were weighed and their tumor sizes were measured. Parameters were calculated using the following equations: […]

ERα36 = target: T1, ERα36 (Homo sapiens, UniProt P03372); assay: ELISA of re-natured ScFv binding to ERα36
T1 construct: made in house; host or cells: chemical synthesis (no expression host)
T1 sequence (P03372 284-310 isoform P03372-4 limits assumed): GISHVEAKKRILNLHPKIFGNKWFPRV
Procedure: Streptavidin-coated 96-well plates were washed twice with PBS. Biotinylated ERα36 (final concentration of 20 μg/ml) was added into each testing well. The plates were incubated for 2 h at room temperature and washed three times with PBST. Re-natured ScFv samples (100 μl, S14A1r1, S24A2r2, S33A2r1, S41A3r3, S53A1r1, S66A1r1 and S72A2r1) were added into the testing wells respectively. Each ScFv was diluted five times in five gradients, and two parallel wells were loaded with each ScFv at each gradient. The plates were incubated at 37° C. for 1 h. The plates were washed three times with PBST, followed by addition of 100 μl anti-His-6 mouse monoclonal antibody (1:2000 dilution) per well and 1 h incubation at 37° C. The plates were washed three times with PBST, followed by addition of 100 μl goat anti-mouse-HRP (1:2500 dilution) per well and 1 h incubation at 37° C. The plates were washed six times with PBST, followed by addition of 100 μl OPD to develop under the protection from light. The reactions were terminated by adding 50 μl 2M H2SO4 to each well, and data were collected by microplate reader at 490 nm.
One positive control and three negative controls were performed in parallel. The positive control used rabbit anti-ER multi-clonal antibody serum in replacement of the ScFv re-natured sample and goat-anti-rabbit-HRP in replacement of goat-anti-mouse HRP.

[2] = test system: Human breast tumor BCAP-37; assay: Tumor growth inhibition in BCAP-37 tumor-bearing nude mice; format: in vivo, BALB/c-nu nude mice
Excerpt: 49 female BALB/c-nu nude mice (provided by department of laboratory animal science, Peking University Health Science Center) were used in the studies.
as §1, §2
Human breast tumor BCAP-37 (estrogen receptor positive, provided by department of pharmacology, Institute of Materia Medica, Chinese Academy of Medical Sciences) was implanted subcutaneously into the armpit of the right forelimb of each tested nude mouse. Diethylstilbestrol was administered by gavage with the dose of 7 μg/day for 9 consecutive days after the implantation. On day 10, the mice were grouped into 7 groups and administered with the corresponding drug via intravenous injection, at a dosing interval of 3-4 days, for 6 consecutive doses. Every 3-4 days, the tumor-bearing mice were weighed and their tumor sizes were measured. Parameters were calculated using the following equations:
Volume of Tumor in animals of each group (VT): Vt=½×a×b^2, (Equation 1),
wherein a and b represent the length and width of the tumor, respectively;
wherein V0 is the volume of tumor before drug administration at the time of grouping, Vt is the volume of tumor at each measurement; the calculation method of V0 is the same as that of Vt;
wherein TRTV is the arithmetic mean of RTV of the test groups, and CRTV is the arithmetic mean of RTV of the negative control group.
The tumor bearing mice in each group were terminated after 21 days of observations and drug administrations. The tumors were then excised from the animals, photographed and weighed on 1/10000 analytical balance. The average tumor weights and tumor growth inhibition rates were calculated:
All experimental data were shown in mean±standard deviation. Groups were compared using statistical t test.

[3] = 5 mg/kg i.v. every 3-4 days, 6 doses
[4] = ScFv concentration 200.00 μg/ml
[5] = BCAP-37 nude mice, 5 mg/kg i.v. every 3-4 days, 6 doses, mean ± SD
[6] = BCAP-37 nude mice, 5 mg/kg i.v. every 3-4 days, Vt relative to V0, mean ± SD

B1: ScFv7: fully human anti-ERα36 single chain antibody, SEQ ID NO: 15 (protein)
scFv: QSVLTQPPSVSAAPGQKVTISCSGSSSNIGNNYVSWYQQLPGTAPKLLIYDNNKRPSGIPDRFSGSKSGTSATLGITGLQTGDEADYYCGTWDSSLSAGVFGGGTKLTVLGSGGSTITSYNVYYTKLSSSGTEVQLVQSGGGLVQPGRSLRLSCAASGFTFDDYAMHWVRQAPGKGLEWVSGISWNSGSIGYADSVKGRFTISRDNAKNSLYLQMNSLRAEDTALYYCAKEGDSSGWSPDYWGQGTLVTVSSAS
modifications: scFv7
For B1, the “tumor sizes at pathological examination (in words)” value (implanted tumors) was “significantly smaller than those of the negative group”, the “tumor volume (VT), relative tumor volume (RVT) and relative tumor growth rate (T/C %) versus negative control group” value (implanted tumors) was “significantly lower” and the tumor inhibition rates (implanted tumors; ScFv-7 0.1 mg/20 g body weight/day, tamoxifen 0.33 mg/20 g body weight/day) was “around 60%”. The “average tumor weights compared with negative group” value (implanted tumors; p-values below 0.01) was “significant difference”, the “Body weights of tumor-bearing nude mice, Day 4 after drug administration” value [1, 3] was 20.02 ± 0.51 and the “Body weights of tumor-bearing nude mice, Day 7 after drug administration” value [1, 3] was 20.65 ± 0.24. The “Body weights of tumor-bearing nude mice, Day 11 after drug administration” value [1, 3] was 21.34 ± 0.51, the “Body weights of tumor-bearing nude mice, Day 14 after drug administration” value [1, 3] was 22.01 ± 0.52 and the “Body weights of tumor-bearing nude mice, Day 18 after drug administration” value [1, 3] was 23.15 ± 0.58. For the same molecule, the “Body weights of tumor-bearing nude mice, Day 21 after drug administration” value [1, 3] was 23.52 ± 0.47, the “body weight when grouped” value ([1]; baseline at the time of grouping) was 19.67 ± 0.67 and the “Body weights of tumor-bearing nude mice, Before drug administration” value ([1]; baseline, 5 mg/kg i.v. every 3-4 days, 6 doses) was 19.67 ± 0.67. The “OD490 Well1” value (ERα36; ScFv concentration 0.32 μg/ml) was 0.122, the “OD490 Well2” value (ERα36; ScFv concentration 0.32 μg/ml) was 0.111 and the “OD490 Well1” value (ERα36; ScFv concentration 1.60 μg/ml) was 0.146. For the same molecule, the “OD490 Well2” value (ERα36; ScFv concentration 1.60 μg/ml) was 0.155, the “OD490 Well1” value (ERα36; ScFv concentration 8.00 μg/ml) was 0.171 and the “OD490 Well2” value (ERα36; ScFv concentration 8.00 μg/ml) was 0.155. For the same molecule, the “OD490 Well1” value (ERα36; ScFv concentration 40.00 μg/ml) was 0.294, the “OD490 Well2” value (ERα36; ScFv concentration 40.00 μg/ml) was 0.311 and the “OD490 Well1” value (ERα36; [4]) was 0.690. The “OD490 Well2” value (ERα36; [4]) was 0.740, the “Tumor volumes, Day 4 after drug administration” value [2, 5] was 186.11 ± 71.13^a mm^3 and the “Tumor volumes, Day 7 after drug administration” value [2, 5] was 308.85 ± 117.52^b mm^3. The “Tumor volumes, Day 11 after drug administration” value [2, 5] was 1521.45 ± 366.24^b mm^3, the “Tumor volumes, Day 14 after drug administration” value [2, 5] was 2136.49 ± 479.95^b mm^3 and the “Tumor volumes, Day 18 after drug administration” value [2, 5] was 2944.61 ± 526.75^b mm^3. The “Tumor volumes, Day 21 after drug administration” value [2, 5] was 3358.43 ± 445.13^b mm^3, the “relative tumor volume (RTV), Day 4” value [2, 6] was 3.81 ± 1.54^b and the “relative tumor volume (RTV), Day 7” value [2, 6] was 6.45 ± 2.86^b. For the same molecule, the “relative tumor volume (RTV), Day 11” value [2, 6] was 31.64 ± 10.24^b, the “relative tumor volume (RTV), Day 14” value [2, 6] was 44.48 ± 13.69^b and the “relative tumor volume (RTV), Day 18” value [2, 6] was 61.54 ± 18.25^b. For the same molecule, the “relative tumor volume (RTV), Day 21” value [2, 6] was 70.27 ± 19.61^b, the “inhibition of tumor growth in tumor-bearing mice (in words)” value ([2]; BCAP-37 nude mice, 5 mg/kg i.v., 6 doses) was “strongest inhibitory activities” and the “Tumor volumes, Before drug administration” value ([2]; baseline, BCAP-37 nude mice, 5 mg/kg i.v. every 3-4 days, 6 doses, mean ± SD) was 50.62 ± 13.32 mm^3. For the same molecule, the “tumor sizes at pathological examination (in words)” value ([2]; excised tumors after 21 days) was “the smallest among the mono-clonal antibody groups”, the “Tumor weight” value ([2]; excised tumors after 21 days, BCAP-37 nude mice, 5 mg/kg i.v., 6 doses, mean ± SD) was 2.860 ± 0.696 g and the “Tumor growth inhibition rate (%)” value ([2]; from average tumor weights after 21 days vs negative control, 5 mg/kg i.v., 6 doses) was 57.97%.
